From patent US20260209386A1 (MYTHIC THERAPEUTICS, published 2026)
Positions count from the first letter of the chain named.

B1: MYT11157 (antibody, V domains shown)
VH: EVQLVESGGGLVQPGGSLRLSCTASGFSLSTYAMSWVRQAPGKGLEWVGMIYINDNTYYASWAKGRFTISRDTSKNTVYLQMNSLRAEDTAVYFCARDIGISYYIGVSLWGQGTLVTVSS
VL: EIVMTQSPSTLSASVGDRVIITCQASQSIGTRLSWYQQKPGKAPKLLIYGHSKLATGVPSRFSGSGSGAEFTLTISSLQPDDFATYYCLGEYSYTTTDGIAFGQGTKLTVL
notes: MYT9412 LC variant
B2: MYT11173 (antibody, V domains shown)
VH: B1 VH
VL: B1 VL with H51A, G99H
notes: MYT9412 LC variant
B3: MYT11167 (antibody, V domains shown)
VH: B1 VH
VL: B1 VL with H51A, S93H
notes: MYT9412 LC variant
B4: MYT11171 (antibody, V domains shown)
VH: B1 VH
VL: B1 VL with H51A, T97H
notes: MYT9412 LC variant
B5: MYT11160 (antibody, V domains shown)
VH: B1 VH
VL: B1 VL with H51A, L54H
notes: MYT9412 LC variant
B6: MYT11162 (antibody, V domains shown)
VH: B1 VH
VL: B1 VL with H51A, T56H
notes: MYT9412 LC variant
B7: MYT11179 (antibody, V domains shown)
VH: B1 VH
VL: B1 VL with H51A, E91A
notes: MYT9412 LC alanine variant
B8: MYT11161 (antibody, V domains shown)
VH: B1 VH
VL: B1 VL with H51A, A55H
notes: MYT9412 LC variant
B9: MYT11164 (antibody, V domains shown)
VH: B1 VH
VL: B1 VL with H51A, G90H
notes: MYT9412 LC variant
B10: MYT11169 (antibody, V domains shown)
VH: B1 VH
VL: B1 VL with H51A, T95H
notes: MYT9412 LC variant
B11: MYT11168 (antibody, V domains shown)
VH: B1 VH
VL: B1 VL with H51A, Y94H
notes: MYT9412 LC variant
B12: MYT11170 (antibody, V domains shown)
VH: B1 VH
VL: B1 VL with H51A, T96H
notes: MYT9412 LC variant
B13: MYT11159 (antibody, V domains shown)
VH: B1 VH
VL: B1 VL with H51A, K53H
notes: MYT9412 LC variant
B14: MYT11158 (antibody, V domains shown)
VH: B1 VH
VL: B1 VL with H51A, S52H
notes: MYT9412 LC variant
B15: MYT11175 (antibody, V domains shown)
VH: B1 VH
VL: B1 VL with H51A, A101H
notes: MYT9412 LC variant

Biological target: T1, Human PTK7 Protein, His Tag, Acro Biosystems (human, UniProt Q13308 31-704)
T1 construct: Bought recombinant protein; also called CCK4; not shown: His tag
T1 sequence: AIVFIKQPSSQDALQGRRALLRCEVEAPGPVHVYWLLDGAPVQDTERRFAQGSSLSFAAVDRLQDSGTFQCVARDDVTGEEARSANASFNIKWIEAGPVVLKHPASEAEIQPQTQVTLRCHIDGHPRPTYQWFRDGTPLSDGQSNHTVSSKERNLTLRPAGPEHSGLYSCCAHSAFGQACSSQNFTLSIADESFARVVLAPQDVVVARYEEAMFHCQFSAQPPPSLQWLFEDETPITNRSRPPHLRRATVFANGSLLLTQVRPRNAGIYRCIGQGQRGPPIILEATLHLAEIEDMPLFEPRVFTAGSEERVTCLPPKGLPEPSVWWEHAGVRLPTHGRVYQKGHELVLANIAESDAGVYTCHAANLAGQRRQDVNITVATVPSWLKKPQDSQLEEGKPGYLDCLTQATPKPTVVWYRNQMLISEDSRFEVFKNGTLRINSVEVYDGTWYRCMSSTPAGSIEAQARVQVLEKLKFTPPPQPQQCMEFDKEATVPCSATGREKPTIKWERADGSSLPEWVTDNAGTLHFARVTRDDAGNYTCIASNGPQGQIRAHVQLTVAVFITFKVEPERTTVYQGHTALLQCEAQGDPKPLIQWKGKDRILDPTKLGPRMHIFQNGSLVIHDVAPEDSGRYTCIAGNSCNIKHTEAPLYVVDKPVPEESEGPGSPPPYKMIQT
Assay: BLI, anti-human Fc capture, 50 nM PTK7; 2 = substantially similar binding relative to parent

Binding result, binds:
B1, B2, B3, B4, B5, B6, B7, B8, B9, B10, B11, B12, B13, B14, B15
